Source: patent publication US11607466B2, “Tumor and immune cell imaging based on PD-L1 expression” (The Johns Hopkins University, priority 2016, dated 2023)
“And” between values parts separate entries of the source, which are not always exact repeats. Identical values can stand only once.

Assays:
[1] = Stroh, et al., 2017; cited from earlier work
mouse PD-L1 = mouse PD-L1 (Mus musculus, UniProt Q9EP73); settings: read-out: dissociation constant (Kd), mouse PD-L1; cited from earlier work
PD-L1 in MDAMB231 tumors [2] = molecular target: T1, PD-L1 in MDAMB231 tumors (Homo sapiens, UniProt Q9NZQ7); assay: Tumor PD-L1 engagement by PD-L1 mAbs measured with [64Cu]WL12, MDAMB231 xenografts; type: in vivo; settings: AtzMab 20 mg/kg, AveMab 10 mg/kg, DurMab 10 mg/kg, 24 h prior to tracer
T1 construct: MDAMB231 breast cancer cells, which naturally express PD-L1; endogenous in cells; host or cells: MDAMB231 (ATCC); as xenografts in NSG mice for the in vivo units
T1 sequence (Q9NZQ7 19-290): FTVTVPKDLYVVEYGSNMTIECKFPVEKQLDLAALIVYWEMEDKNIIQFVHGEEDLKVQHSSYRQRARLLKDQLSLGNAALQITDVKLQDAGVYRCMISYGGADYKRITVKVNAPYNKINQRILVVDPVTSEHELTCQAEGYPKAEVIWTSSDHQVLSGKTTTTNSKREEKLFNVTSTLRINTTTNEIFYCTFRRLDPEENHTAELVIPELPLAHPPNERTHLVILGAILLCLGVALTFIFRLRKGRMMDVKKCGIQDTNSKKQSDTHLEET

PD-L1 in H226 xenografts = molecular target: T2, PD-L1 in H226 xenografts (Homo sapiens, UniProt Q9NZQ7); assay: Tumor PD-L1 engagement by AtzMab measured with [64Cu]WL12, H226 xenografts; type: in vivo; settings: AtzMab 20 mg/kg for 24 h, vs saline controls
T2 construct: Each of which naturally expresses PD-L1; endogenous in cells; host or cells: HCC827 and H226 NSCLC cells; as xenografts in NOD scid gamma mice for the in vivo units
T2 sequence (Q9NZQ7 19-290): as above
Source text: (§1) 3.3.2 Quantifying Tumor PD-L1 engagement by AtzMab. To evaluate PD-L1 engagement by the therapeutic mAbs at the tumor non-invasively in vivo, NSCLC xenograft models were studied. Those models were selected because nearly 50% of NSCLCs are PD-L1-positive and PD-L1 IHC is used as a predictive biomarker in patients with NSCLC undergoing immune checkpoint therapy (Mansfield, et al., 2016). […] There is a clear reduction in the accumulation of radioactivity in tumors of AtzMab-treated mice, indicating reduced levels of available PD-L1 sites, compared to treated controls (FIG. 35A and FIG. 35B). […] PD-L1 expression levels were confirmed by PD-L1 IHC of the xenografts (FIG. 35C and FIG. 35F).

[3] = molecular target: T3, PD-L1 in HCC827 xenografts (Homo sapiens, UniProt Q9NZQ7); assay: Tumor PD-L1 engagement by AtzMab measured with [64Cu]WL12, HCC827 xenografts; type: in vivo; settings: AtzMab 20 mg/kg for 24 h, vs saline controls
T3 construct: Each of which naturally expresses PD-L1; endogenous in cells; host or cells: HCC827 and H226 NSCLC cells; as xenografts in NOD scid gamma mice for the in vivo units
T3 sequence (Q9NZQ7 19-290): as above
Source text: as §1

PD-L1 in hPD-L1 tumors = molecular target: T4, PD-L1 in hPD-L1 tumors (Homo sapiens, UniProt Q9NZQ7); assay: Tumor PD-L1 engagement by AtzMab measured with [64Cu]WL12, hPD-L1/CHO tumors; type: in vivo, mouse; settings: AtzMab 20 mg/kg 24 h prior to tracer
T4 construct: expressed in transfected cells; grown as tumours in NSG mice for the in vivo units
T4 sequence (Q9NZQ7 19-290): as above
Source text: 2.1.3.3 PD-L1 therapeutic antibody accumulation in the tumors by PD-L1 PET: While evaluating the specificity of WL12 for PD-L1, it was discovered that WL12 competes with AtzMab to the same binding site on PD-L1. This provides a novel and previously unanticipated means to evaluate AtzMab therapy at tumor sites, where it is needed, using PD-L1-directed PET. Improved understanding of the distribution of PD-L1 antibodies in tumors may impact clinical antibody dosing and therapeutic monitoring. Therefore, the ability of [^64Cu]WL12-PET to assess AtzMab binding to PD-L1 within tumors was tested. Accumulation of radioactivity in hPD-L1 tumors was reduced by 80% in mice injected with AtzMab (20 mg/kg) as quantified by [^64Cu]WL12-PET and biodistribution studies (FIG. 21A, FIG. 21B, and FIG. 21C). […] The applicability of this approach was extended to cancer cell lines with native increase in PD-L1 expression.
To assess the effect of a single dose of AtzMab on targeting different PD-L1 levels in the tumors, PET and biodistribution studies were performed in tumors derived from the CHO-hPDL1 cell line, which has four- to ten-fold higher PD-L1 expression than NSCLC cells (FIG. 36). […] Those observations were confirmed by strong and week immunoreactivity observed in hPD-L1 and CHO tumors, respectively (FIG. 35I).

[4] = molecular target: T5, PD-L1 in HCC827, H226, hPD-L1 and MDAMB231 cells (Homo sapiens, UniProt Q9NZQ7); assay: [64Cu]WL12 binding to PD-L1-positive cells in the presence of 60 nM mAbs; type: cell-based; settings: 60 nM mAb vs PBS control
T5 construct: Each of which naturally expresses PD-L1; endogenous in cells; host or cells: HCC827, H226, MDAMB231 (endogenous) and CHO-hPD-L1 (stably transfected)
T5 sequence (Q9NZQ7 19-290): as above
Procedure: Non-interacting residues are shown in gray. […] Mean fluorescence intensities were determined by flow cytometry.
HCC827 and H226 non-small cell lung cancer (NSCLC) cells also were tested.

PD-L1 in MDAMB231 tumors [5] = molecular target: T1, PD-L1 in MDAMB231 tumors; assay: Effect of AtzMab dose on tumor PD-L1 occupancy, inhibitory sigmoidal Emax model of [64Cu]WL12 % ID/g; type: in vivo
Procedure: To evaluate the effect of dose on tumor PD-L1 occupancy at the tumor, mice bearing MDAMB231 tumors were injected with escalating doses of AtzMab from 0.009 to 24 mg/kg body weight. […] At the 0.6 and 3.2 mg/kg dose, there was a proportionate decrease in signal intensity in the tumors indicating—for the 3.2 mg/kg dose—a near 100% target engagement at the tumor by the antibody.
The accumulated radioactivity (% ID/g) in the tumors was then used to fit an inhibitory sigmoidal E. model.

PD-L1 in MDAMB231 tumors [6] = molecular target: T1, PD-L1 in MDAMB231 tumors; assay: Tumor PD-L1 engagement by PD-L1 mAbs measured with [64Cu]WL12, MDAMB231 xenografts; type: in vivo
Procedure: To evaluate the effect of dose on tumor PD-L1 occupancy at the tumor, mice bearing MDAMB231 tumors were injected with escalating doses of AtzMab from 0.009 to 24 mg/kg body weight.

Chain of mouse PD-L1 (Q9EP73 19-290): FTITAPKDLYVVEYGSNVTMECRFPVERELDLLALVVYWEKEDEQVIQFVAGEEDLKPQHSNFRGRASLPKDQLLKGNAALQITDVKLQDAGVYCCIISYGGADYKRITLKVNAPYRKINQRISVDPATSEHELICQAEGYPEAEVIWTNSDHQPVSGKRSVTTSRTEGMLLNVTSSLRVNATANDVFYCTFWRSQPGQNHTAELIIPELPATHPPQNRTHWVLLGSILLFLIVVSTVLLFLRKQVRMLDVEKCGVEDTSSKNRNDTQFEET

- [64Cu]WL12 uptake in MDAMB231 xenografts (PD-L1 in MDAMB231 tumors [2]): significantly reduced
- reduction in [64Cu]WL12 % ID/g, H226 xenografts (PD-L1 in H226 xenografts): 34%
- reduction in [64Cu]WL12 % ID/g, HCC827 xenografts [3]: 47%
- reduction of [64Cu]WL12 accumulation in hPD-L1 tumors (PD-L1 in hPD-L1 tumors): 80% and 77%
- [64Cu]WL12 binding to PD-L1-positive cells [4]: inhibited
- ID90 (PD-L1 in MDAMB231 tumors [5]; 90% of Imax): 0.87 mg/kg
- ID96 (PD-L1 in MDAMB231 tumors [5]; 96% of Imax): 1.19 mg/kg
- ID50, dose for 50% of the maximum PD-L1 engagement in the tumor (PD-L1 in MDAMB231 tumors [5]; MDAMB231 tumors, 24 h after dose): 0.43 mg/kg and 0.43 (10%) mg/kg
- Imax (PD-L1 in MDAMB231 tumors [5]; maximum fractional decrease in free PD-L1 ligands, mean (% RSE)): 0.57 (3%)
- Hill coefficient (PD-L1 in MDAMB231 tumors [5]; mean (% RSE)): 3.12 (19%)
- Residual error (PD-L1 in MDAMB231 tumors [5]; mean (% RSE)): 0.44 (14%) % ID/g
- Baseline free PD-L1 ligands (PD-L1 in MDAMB231 tumors [5]; mean parameter value (% relative standard error)): 5.91 (1%) % ID/g
- [64Cu]WL12 accumulation in tumors vs antibody dose (PD-L1 in MDAMB231 tumors [5]; various doses, 24 h prior, biodistribution 2 h after tracer): reduced with increasing antibody dose
- [64Cu]WL12 uptake compared to untreated controls, PET (PD-L1 in MDAMB231 tumors [6]; AtzMab 0.06 mg/kg): no difference
- [64Cu]WL12 tumor uptake at 120 h compared to 24 h (PD-L1 in MDAMB231 tumors [6]; AtzMab 0.6 mg/kg): significant increase
- target engagement at the tumor (PD-L1 in MDAMB231 tumors [6]; AtzMab 3.2 mg/kg): ~100%
- [64Cu]WL12 tumor uptake at 120 h compared to 24 h (PD-L1 in MDAMB231 tumors [6]; AtzMab 10 or 20 mg/kg): no significant temporal difference
- PD-L1 occupancy at 24 and 120 h (PD-L1 in MDAMB231 tumors [6]; atezolizumab 10 mg/Kg): complete blockade of PD-L1
- less uptake of [64Cu]WL12 in tumors vs saline controls (PD-L1 in MDAMB231 tumors [6]; mAb 24 h prior, 120 min after tracer injection, ex vivo): approximately 60%
Substance: AtzMab: therapeutic PD-L1 antibody Atezolizumab
- linearity of pharmacokinetics [1]: non-linear PK below 0.6-1 mg/kg and linear PK above 1 mg/kg dose
- Kd (mouse PD-L1): 0.13 nM
- expected average plasma concentration (PD-L1 in MDAMB231 tumors [5]; at ID50, assuming Vss 50 mL/kg): 59 nM and 8.6 mcg/mL
- expected average plasma concentration (PD-L1 in MDAMB231 tumors [5]; at ID90, assuming Vss 50 mL/kg): 120 nM and 17.4 mcg/mL
- expected average plasma concentration (PD-L1 in MDAMB231 tumors [5]; at ID96, assuming Vss 50 mL/kg): 164 nM and 23.8 mcg/mL
- PD-L1 occupancy at 24 and 120 h (PD-L1 in MDAMB231 tumors [6]; atezolizumab 1 mg/Kg): increased accumulation of [^64Cu]WL12 can be seen at 120 h but not at 24 h
